Measured values reported in paper PMC11260014 (JTO Clinical and Research Reports, 2024).

Tests used:
ALK-positive NSCLC = conditions: monotherapy; phase 2 study, subgroups with prior ALK TKI treatment; cited from earlier work
[1] = Pharmacokinetics from blood samples; format: in vivo, human; conditions: serum, in combination with lorlatinib or crizotinib

C[C@H]1Oc2cc(cnc2N)-c2c(nn(C)c2C#N)CN(C)C(=O)c2ccc(F)cc21 [Lorlatinib, lorlatinib]
Median PFS (ALK-positive NSCLC): 6.9–7.3 mo

avelumab
Ctrough level at steady state ([1]; at cycle 2): above 10 μg/mL
Cmax on cycle 1 day 1 versus cycle 2 day 1 [1]: similar
